B1: cartilage oligomeric matrix protein (COMP, TSP-5), recombinant full-length rat, N-terminal double strep II-tag (natural protein)
chain: not shown
notes: cartilage oligomeric matrix protein, rat, called full-length; the PCR product lacks the natural signal peptide and was cloned in frame with the BM-40 signal peptide; A thrombin cleavage site lies between the tag and the protein; Pentamer held by interchain disulphide bonds; also called TSP-5/COMP; source: HEK293-EBNA, secreted, purified from culture supernatant (streptactin-sepharose)
B2: thrombospondin-4 (TSP-4), recombinant full-length rat, N-terminal double strep II-tag (natural protein)
chain: not shown
notes: thrombospondin-4, rat, called full-length; the PCR product lacks the natural signal peptide and was cloned in frame with the BM-40 signal peptide; A thrombin cleavage site lies between the tag and the protein; Pentamer held by interchain disulphide bonds; glycosylated; also called full-length pentameric TSP-4; source: HEK293-EBNA, secreted, purified from culture supernatant (streptactin-sepharose)
B3: thrombospondin-2 (TSP-2), recombinant full-length murine, N-terminal double strep II-tag (natural protein)
chain: not shown
notes: thrombospondin-2, mouse, called full-length; the PCR product lacks the natural signal peptide and was cloned in frame with the BM-40 signal peptide; A thrombin cleavage site lies between the tag and the protein; Trimer held by interchain disulphide bonds; heavily glycosylated; source: HEK293-EBNA, secreted, purified from culture supernatant (streptactin-sepharose)

Target: the molecule itself
Assay: SDS-PAGE and immunoblot without and with DTT; purified proteins separated under non-reducing and reducing conditions; composite agarose/polyacrylamide gel for intact TSPs; oligomers held by interchain disulphide bonds

| Protein | stoichiometry N |
| --- | --- |
| B1 | 5 |
| B2 | 5 |
| B3 | 3 |
